Experimental data: the RNAGym collection of RNA variant scans (doi:10.1073/pnas.2313332121)
This sample holds only a part of the variants without activity.

B1: TPR 5TU (parent)
chain: GGAUCUUCUCGAUCUAACAAAAAAGACAAAUCUGCCACAAAGCUUGAGAGCAUCUUCGGAUGCAGAGGCGGCAGCCUUCGGUGGCGCGAUAGCGCCAACGUUCUCAACUAUGACACGCAAAACGCGUGCUCCGUUGAAUGGAGUUUAUCAUG

Variants of: B1
Test: polymerase ribozyme fitness, log enrichment relative to wild type (log ratio); higher = more active; in vitro selection for triplet polymerase activity
Method in brief: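 Both subunits of a heterodimeric triplet polymerase ribozyme were given their own mutant library, built by PCR and transcribed. Each library was annealed with a biotinylated primer, the partner subunit and triplets, incubated frozen at −7 °C, and its extended constructs gel-excised, captured on streptavidin beads and amplified by RT-PCR, all in one round done in triplicate. Fitness is the logarithm of genotype enrichment relative to wild-type enrichment, with replicates averaged by inverse-variance weighting. That logarithm is base 2, and Illumina-sequenced genotypes needed ≥10 input reads and ≥1 read per output.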

Variant	polymerase ribozyme fitness (log ratio)
G58A G59U G62C G67U A73U C96A U130G A138U A150G	≤ -4.2
G59A C132G U139C	-2.96
G59C U101G	-0.121
G59C A110G	-3.79
G58C A107C	-4.06
C57U U82A C93A G112U C116U	≤ -4.2
G58U U82A C116U	0.803
G59A C93U A98U A138C	≤ -4.2
G59A G71A G117C	-3.56
G58U A91G	-2.46
G58A G86U	-1.12
G58A C87U C108U A142C	-3.89
G59A G83U	-1.06
G58C U61C G70C C76G C96U A138G G140U C149G	≤ -4.2
C57U U78A G80A A138G U139G	≤ -4.2
G58A G117U	1.04
G58A C87U C93A U130G	≤ -4.2
G58A U61A A107G C118G A119G	≤ -4.2
G59C G83U	0.0759
G59C G83A	-0.754
G59C G86A A89G	-4
G59C A119C	-0.18
G59A C118A	-0.536
G59A C93U	-3.33

Variant	polymerase ribozyme fitness (log ratio)
G59A C93G	-3.78
G59A C93A	-3.22
G58U G62U C99U C118U U134C	≤ -4.2
G59C G94A U101G A113C	≤ -4.2
G59A U78A G92U C96A C114U A121U	≤ -4.2
G58C C87G A98G	≤ -4.2
C57U U127C	-2.13
G58U G83A C85U	-0.262
G58A G59A A122G U148C	-2.64
G59A G67A C108U	≤ -4.2
G59A C93A U135C U146A	-3.8
G58U U61A U90A A142G	≤ -4.2
G58A G86A A110G A115C U151G	≤ -4.2
G58C C69A	-2.62
C57U U61G G86A A89U	-3.74
G58C U61G U146G	-3.76
G58C C118A	-0.0404
G58C U61A C79A A91G G117A	≤ -4.2
G58A C85G G100U U144A	≤ -4.2
G58C G86U C105A	-2.89
G58A A66C G74C C131G G136U	≤ -4.2
G58A G86U A119U	-2.06
G59A A60G G94U C95A	-1.74
G58C C103A U145G	-1.84

Variant	polymerase ribozyme fitness (log ratio)
G59C G86C C96U A121U	-3.29
G58A C116U	0.457
G58U A64G A91G A113U U135A	≤ -4.2
G59C C85U	-0.507
G59C C87A U109A G133C	≤ -4.2
G58C G83A G84U G92U U135A U139G G141A	≤ -4.2
G58C G86C A89U	-3.91
G59C U78C G83A	-0.666
G59C G62A A122U U134G	-3.13
G59A U78G A91U U102G	≤ -4.2
G58A A64U G74A C79A U90C C96A C149A	≤ -4.2
G59A A64C G88C	≤ -4.2
G58C C85U A89G G136A	-3.96
G58C A64G G65A G71A C95U U101G	≤ -4.2
G58A C87U	-0.808
G59C G81A	-2.07
G58U A150C	-3.57
G59C G81C G84C	≤ -4.2
G58C G80A C95U U127G C149G	≤ -4.2
G58A C87U G92A A150G	-0.884
G58C A73G G84U	-1.97
G58A U145G	0.851
C57U U61A G81C A107U	≤ -4.2
G59C G86U C95U	-2.13

Variant	polymerase ribozyme fitness (log ratio)
G58A C87U G100C A122C G126A G141U	≤ -4.2
G58A C75U	-1.82
G58U G68A C95U	-4.01
G58U G141A	1.05
G58U G141C	0.501
G58C G70C G141A	≤ -4.2
G59C U82G C85A U102G	-4.09
G59A C96A G117U	-0.271
G59A C99A G140U	-3.99
G59A G67A G86C C96G G140U U144C A147U	≤ -4.2
G58A C76A G80C C85U A89G U90C U101G C149A	≤ -4.2
G58A C63G G86U G94C A137C G141U U151C	≤ -4.2
G58C A60G C75U	0.32
G59C U61G C96G C105U A115U A150U	≤ -4.2
C57U G94U C118U G143U	≤ -4.2
G59A C123A	-0.0504
G59C A106U	-0.917
G58U C85A C95G C96U	-3.24
G58U U82A A142G	-0.998
G58C A66G G140U	≤ -4.2
G59C G86C G143U	≤ -4.2
G59C A107U G143U	≤ -4.2
G59C C63U C87U A107U	-3.81
G59A U127C	-1.23

Variant	polymerase ribozyme fitness (log ratio)
G59A G86U	-1.84
G59A G86A	-2.02
G58C G83U C85G	-3.33
G58A U82C A147C C149G	≤ -4.2
G59A U90G C95G	≤ -4.2
G59A G70U C93G A113U	≤ -4.2
G58C A122G A150C	-3.46
G59A C116U	-0.293
C57U G94C C116U	0.445
G58A G94C	-0.674
G58A G94A	-0.945
G59A A110U	-3.64
G58C U139C	-3.3
G59A G88U C116G	-3.56
G59A C99U A115G	-1.83
G59A A66G	-3.24
G59C G133U	-3.47
G58A G92A C123G	-4.01
G59A A147U	1.25
G58C G94C	-0.872
G58C C85U	-1.17
G58C A98U	-0.459
G59C G88C A106U C108U	≤ -4.2
G58A A89U C96A A115G	-1.15

Variant	polymerase ribozyme fitness (log ratio)
G58A U77C G80U U90G C93A A121G A142G	≤ -4.2
G58C C87U U135A	-2.15
G59C C93U U102A A137G	-3.95
G58A C103U C118A C132A A138C	≤ -4.2
G59A G92U U104C A121C	-2.09
G58A C87A A98G A121C	≤ -4.2
G59C C93A C95A	-4.05
G58U C85G	-1.61
G58A A60C C63A U82G G88C C95A A113G A147G	≤ -4.2
G58C C96A A115U G128U	≤ -4.2
G59C A60C U77A C85A G140A U144C	≤ -4.2
G59A C85G G100A A115U U127G G141A	≤ -4.2
G59C A142C	-0.57
G59A G140C U144G	-3.79
G59A A89U	-0.162
G58C G62C C95G	-3.72
G59C C114U G128A A142U	-2.5
G58U C129G	-2.47
G58U G81A A122G	-0.315
G58A A73U U101G U102A U109A	≤ -4.2
G59C G67A C85A G112U	≤ -4.2
G58A U82C G92C A110U G136A	≤ -4.2
G58C C87A U109C U130G	≤ -4.2
G59A G88U	-3.96

Variant	polymerase ribozyme fitness (log ratio)
G59A G88A	-4.04
G59A G88C	-3.73
G58U C87U C125G	-0.741
G59A G86U A119U G140U	-3.26
G58C C87U A115G C116G A121U G136U	-4.12
C57U G140C	-3.55
G58A A66G C93U C99U	≤ -4.2
G59C C69A G133C	-1.75
G58C U134G	-3.93
G59C A89U C96G A107G	≤ -4.2
G59A G94C	-0.903
C57U G128U	-3.2
G59C G124A	-1.57
G58C G83U	-2.88
C57U G126C	0.553
G58U C87A U109C U148C	≤ -4.2
G58U C69A G83A	-1.52
G59C G126A	0.0741
G59C G126U	0.134
G59A	-0.0739
G59C	0.0972
G59U	-0.206
G58C C75G C76G C85U	≤ -4.2
